Experiments:
[1] = target: MHC-I (endogenous, mouse primary cortical neurons) (mouse (endogenous in primary cortical neurons)) (UniProt P01901); experiment: co-IP; cultured mouse primary cortical neurons, with or without oligomeric Aβ; anti-mouse MHC-I antibody (2G5); endogenous MHC-I and NCAM1
[2] = target: single-chain trimer (SCT) of HLA-A2.1 (TAX-HLA-A2.1-hβM); experiment: co-IP

UniProt P01901, sequence (P01901 22-369): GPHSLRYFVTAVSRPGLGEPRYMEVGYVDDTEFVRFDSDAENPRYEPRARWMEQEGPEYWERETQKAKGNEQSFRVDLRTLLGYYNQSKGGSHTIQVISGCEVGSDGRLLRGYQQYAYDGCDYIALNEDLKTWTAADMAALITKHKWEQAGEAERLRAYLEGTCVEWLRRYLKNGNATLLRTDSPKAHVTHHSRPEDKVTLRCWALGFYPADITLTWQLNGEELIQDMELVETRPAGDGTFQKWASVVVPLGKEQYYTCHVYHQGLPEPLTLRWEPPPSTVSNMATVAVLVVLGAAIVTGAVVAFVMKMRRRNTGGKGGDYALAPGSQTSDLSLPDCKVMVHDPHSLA

Row | Substance | reduction of co-precipitated NCAM1 with Aβ treatment against control [1] | fold increase of the complex with Aβ treatment [2]
1 | NCAM1 (endogenous, mouse primary cortical neurons) (from UniProt P13595 20-1115) (natural protein) | 50% | –
2 | NCAM1-hemagglutinin (HA) (from UniProt P13591 20-858) (natural protein) | – | 1.5 fold

From article PMC10540404
